{"source": "patent US7838294B2", "about": "“Inhibitors of the JNK signal transduction pathway and methods of use” (University of Massachusetts, priority 1997, dated 2010)", "molecules": {"B1": {"name": "JIP-1: 660 amino acid murine cytoplasmic protein that specifically binds JNK (protein)", "chain": "MAERESGLGGGAASPPAASPFLGLHIASPPNFRLTHDISLEEFEDEDLSEITDECGISLQCKDTLSLRPPRAGLLSAGSSGSAGSRLQAEMLQMDLIDAAGDTPGAEDDEEEEDDELAAQRPGVGPPKAESNQDPAPRSQGQGPGTGSGDTYRPKRPTTLNLFPQVPRSQDTLNNNSLGKKHSWQDRVSRSSSPLKTGEQTPPHEHICLSDELPPQGSPVPTQDRGTSTDSPCRRSAATQMAPPSGPPATAPGGRGHSHRDRIHYQADVRLEATEEIYLTPVQRPPDPAEPTSTFMPPTESRMSVSSDPDPAAYSVTAGRPHPSISEEDEGFDCLSSPERAEPPGGGWRGSLGEPPPPPRASLSSDTSALSYDSVKYTLVVDEHAQLELVSLRPCFGDYSDESDSATVYDNCASASSPYESAIGEEYEEAPQPRPPTCLSEDSTPDEPDVHFSKKFLNVFMSGRSRSSSAESFGLFSCVINGEEHEQTHRAIFRFVPRHEDELELEVDDPLLVELQAEDYWYEAYNMRTGARGVFPAYYAIEVTKEPEHMAALAKNSCVLEISVRGVKIGVKADDALEAKGNKCSHFFQLKNISFCGYHPKNNKYFGFITKHPADHRFACHVFVSEDSTKALAESVGRAFQQFYKQFVEYTCPTEDIYLE"}}, "test_system": "JNK", "assay": "Immune complex protein kinase assay: JNK, substrate GST-Jun", "assay_type": "biochemical, Chinese hamster", "conditions": "in vitro, 3 μg GST-Jun, 30 minutes at 30° C.", "method": "To test whether JIP-1 competes with Jun and ATF2 for interaction with JNK, the effect of JIP-1 on transcription factor-mediated phosphorylation of exogenous substrates was analyzed using an in vitro protein kinase assay. In these experiments, Chinese hamster ovary (CHO) cells were serum-starved for one hour. In some experiments, the cells were treated with 10 ng/ml mouse interleukin 1 or 100 nM phorbol myristic acetate. JNK, p38, and ERK protein kinase activity was measured in an immune complex kinase assay using 3 μg of the substrates GST-Jun, GST-ATF2, and myelin basic protein (MBP), respectively. Protein kinase assays were performed using 40 μl 20 mM Hepes (pH 7.4), 20 mM MgCl2, 20 mM β-glycerophosphate, 2 mM dithiothreitol, 0.1 mM sodium orthovanadate, 50 μM [γ-^32P]ATP (10 Ci/mmol). After incubation for 30 minutes at 30° C., phosphorylation of substrates was analyzed by polyacrylamide gel electrophoresis and autoradiography."}
{"molecule": "B1", "values": [{"measurement": "phosphorylation of c-Jun by JNK", "result": "markedly inhibited"}]}
